# Experimental data reported in patent US20040170622A1, “Methods and compositions for modulating XBP-1 activity” (President and Fellows of Harvard College, priority 2002, published 2004).
# Read-outs that look alike come from different tables or passages of the source.
# B1: dn-XBP: dominant negative XBP-1 containing the N-terminal 188 aa, lacking transactivation domain, retaining leucine zipper (protein)
# chain: MVVVAAAPSAATAAPKVLLLSGQPASGGRALPLMVPGPRAAGSEASGTPQARKRQRLTHLSPEEKALRRKLKNRVAAQTARDRKKARMSELEQQVVDLEEENHKLQLENQLLREKTHGLVVENQELRTRLGMDTLDPDEVPEVEAKGSGVRLVAGSAESAAGAGPVVTSPEHLPMDSDTVASSDSESD
# Test system: XBP-1 and ATF6α
# Test: UPRE (5×ATF6GL3) reporter in MEF cells with dominant negative XBP-1
# Assay type: cell-based
# Procedure: (A) The 5×ATF6GL3 reporter plasmid was cotransfected with either pCGNATF6α or XBP-u/s plasmids into MEF cells with or without the dominant negative XBP-1 expression plasmid. 100 ng DNA was used for each transfection except for pCDNA3.1, which was added to give 1 μg of DNA in total. Luciferase assays were performed as described in the legend to FIG. 18.(B) MEF and MEF-dn-XBP cells that stably express dominant negative XBP-1 protein were treated with 10 μg/ml Tm for the indicated time periods. Total RNAs were isolated and subjected to Northern blot analysis. The same blot was hybridized sequentially with BiP, CHOP, ERdj4, p58^ipk and ATF6α probes. Ethidium bromide staining of the gel before blotting is shown at the bottom as loading control.
# To make 4×XBPGL3, two complementary oligonucleotides containing the XBP-1 binding site 5^f-CGCG(TGGATGACGTGTACA)4-3′ (SEQ ID NO: 12) and 5′-GATC(TGTACACGTCATCCA)4-3^f (SEQ ID NO: 13) were annealed and ligated to the—40-Luc plasmid (Lee et al. 2000. Biochem J. 350 Pt1:131-138) digested by Mlu I and Bgl II. The UPRE reporter was constructed by inserting an annealed oligonucleotide containing two UPRE motifs (Roy and Lee 1999 Nucleic Acids Res. 27:1437), 5′-cgcgtcaCCAATcggaggcctCCACGaccaCCAATcggaggcctCCACGac-3′, (SEQ ID NO: 14) to the 40-Luc plasmid between the Mlu I and Xho I sites (Lee et al. 2000. Biochem J. 350 Pt1:131-138). UPRE reporter (5×ATF6GL3), pCGNATF6 and pCGNAF6 (1-373) were previously described (Wang et al. 2000. J. Biol. Chem. 275:27013). The pCDNA3.1 ([…]) driven expression vectors for mouse XBP-1s and XBP-1u/s were described elsewhere (Iwakoshi et al. 2003. Nature Immunology 4:321). pCDNA-dn-XBP was constructed by removing the region downstream of the Eco RV site of XBP-1s cDNA in the pCDNA-XBP-1s plasmid. TREhyg-XBP-1s and TREhyg-dn-XBP were constructed by inserting the XBP-1s cDNA and DN-XBP, respectively, into TRE2 hyg (Clontech) between the Pvu II and Sal I sites. […]
molecule,measurement,setting,value
B1,transactivation of the UPRE reporter by ATF6α / function of ATF6,,inhibited the transactivation of the UPRE reporter by ATF6α
same,transactivation of the UPRE reporter by XBP-1s,,completely abolished transactivation of the UPRE reporter by XBP-1s
same,transactivation of the UPRE reporter by ATF6α / function of ATF6,listed as dn-XBP-1,potently inhibited the function of ATF-6 through heterodimerization
